The experiment deals with biotin-conjugated Aβ_(1-40). Description: ELISA. In general terms: ELISA stands for enzyme-linked immunosorbent assay.

This passage reports EC50 results from paper doi:10.1101/2025.06.26.661714.

B1: solanezumab-Im7 wild-type (solanezumab Fab conjugated to Immunity protein 7) (Fab, V domains shown)
VH: EVQLVESGGGLVQPGGSLRLSCAASGFTFSRYSMSWVRQAPGKGLELVAQINSVGSSTYYPDTVKGRFTISRDNAKNTLYLQMNSLRAEDTAVYYCASGDYWGQGTLVTVSS
VL: DVVMTQSPLSLPVTLGQPASISCRSSQSLIYSDGNAYLHWFLQKPGQSPRLLIYKVSNRFSGVPDRFSGSGSGTDFTLKISRVEAEDVGVYYCSQSTHVPWTFGQGTKVEIK
On to B1, for which the EC50 was determined as 3.5 nM.

The term EC50 denotes the concentration at which the effect is half-maximal.
